Source: article PMC5536072

System: p53 (full-length human) (Homo sapiens)
Assay: AFM
Conditions: AFM on mica, 'physiological buffer conditions', binding buffer and temperature not given in the material, DNA stock in 10 mM Tris-HCl pH 7.6, 1 mM EDTA

Row | Substance | Kd (logistic fit of site occupancy against p53 18.9-56.6 nM, DNA 1 ng/uL) [nM] | Kd (stated as approximately the same Kd as for 20,000 bp DNA, p53 18.9-56.6 nM) [nM]
1 | 20,000 bp DNA | 328 | –
2 | 5000 bp DNA | – | 328
